Data on 23 sequences can be found in the Immune Epitope Database (IEDB).

Targets include HLA-A*32:01; HLA-A*30:02; HLA-A*29:02; HLA-A*23:01; HLA-A*26:01; HLA-A*24:02; HLA-A*01:01.
Common to all, as to assay: IEDB peptide-MHC binding, purified MHC/competitive/radioactivity; filed as Kd, often an IC50 or EC50 that approximates it; ≥ and ≤ were set here for values at or beyond the usual limits of such assays
The target of a further assay is HLA-A*68:01. As to conditions: source organism: SARS coronavirus Tor2.
Another assay concerns the target HLA-A*33:01. The settings on record: source organism: SARS coronavirus Tor2.
Another assay deals with HLA-A*31:01. As to conditions: source organism: SARS coronavirus Tor2.
The next assay concerns the target HLA-A*11:01. As to conditions: source organism: SARS coronavirus Tor2.
The mark [1] stands for this setting: source organism: Vaccinia virus WR.
Where [2] appears, read: source organism: SARS coronavirus Tor2.
Setting [3] is: source organism: Mammarenavirus whitewaterense.
Where [4] appears, read: source organism: Dengue virus 1 Brazil/97-11/1997.
Setting [5] is: source organism: Mammarenavirus lassaense.
[6] abbreviates: source organism: Mammarenavirus guanaritoense.
Where [7] appears, read: source organism: Triticum aestivum.
Where [8] appears, read: source organism: Mammarenavirus machupoense.

Some results are limits rather than exact numbers.

As to RTFLIDLAF, the Kd – broadly, the free concentration of one partner at which half of the binding sites on the other are occupied at equilibrium, for simple one-to-one binding – with HLA-A*32:01 (setting [1]) turned out to be 0.48 nM.

As to RHLIFSYAF, the Kd in the assay with HLA-A*32:01 (setting [1]) amounted to 13.6 nM.

ATSRTLSYY: the Kd was 1.03 nM with HLA-A*30:02 (setting [2]); 12 nM with HLA-A*29:02 (setting [2]); 1200 nM with HLA-A*68:01; no less than 77700 nM with HLA-A*33:01; 3880 nM with HLA-A*31:01; no less than 77800 nM with HLA-A*23:01 (setting [2]). Also, the Kd with HLA-A*11:01 is 28.5 nM; in the assay with HLA-A*26:01 (setting [2]), 1940 nM; in the assay with HLA-A*24:02 (setting [2]), no less than 35700 nM; in the assay with HLA-A*01:01 (setting [2]), 4.81 nM.

With NVAYGAVSF, in the assay with HLA-A*32:01 (setting [1]), the Kd turned out to be 136 nM.

Consider TVMAFHLTT, for which the Kd with HLA-A*32:01 (source organism: Dengue virus 2 Peru/IQT2913/1996) stood at 19200 nM.

As to LRIPTHRHI, the Kd in the assay with HLA-A*30:02 (setting [3]) was no less than 76900 nM; with HLA-A*29:02 (setting [3]) it was no less than 33700 nM; with HLA-A*23:01 (setting [3]) it was no less than 71500 nM; in the assay with HLA-A*26:01 (setting [3]), no less than 77900 nM; in the assay with HLA-A*24:02 (setting [3]) it was no less than 77500 nM; in the assay with HLA-A*01:01 (setting [3]), no less than 25700 nM.

On to AVLTGGVTL, for which the Kd with HLA-A*32:01 (setting [4]) was 6690 nM.

GSAKLRWFVE: the Kd with HLA-A*32:01 (source organism: Dengue virus 2 Jamaica/1409/1983) was no less than 22200 nM.

GYTMHANYI: the Kd with HLA-A*30:02 (setting [2]) is no less than 78900 nM; with HLA-A*29:02 (setting [2]), no less than 88200 nM; with HLA-A*23:01 (setting [2]), 6960 nM; with HLA-A*26:01 (setting [2]), no less than 77900 nM; with HLA-A*24:02 (setting [2]) it was 13500 nM; with HLA-A*01:01 (setting [2]), no less than 78100 nM.

For the sequence LYDANYFVCW, the Kd in the assay with HLA-A*30:02 (setting [2]) came out at 13400 nM; in the assay with HLA-A*29:02 (setting [2]), 1440 nM; with HLA-A*23:01 (setting [2]), 24.5 nM; with HLA-A*26:01 (setting [2]), 9640 nM; with HLA-A*24:02 (setting [2]), 55.4 nM; in the assay with HLA-A*01:01 (setting [2]), 1130 nM.

Take GYVTHGFNL: the Kd with HLA-A*30:02 (setting [2]) is no less than 78900 nM; with HLA-A*29:02 (setting [2]), 839 nM; with HLA-A*23:01 (setting [2]) it was 234 nM; with HLA-A*26:01 (setting [2]) it was no less than 77900 nM; with HLA-A*24:02 (setting [2]), 1210 nM; with HLA-A*01:01 (setting [2]), no less than 78100 nM.

AGFAAGLTY: the Kd with HLA-A*30:02 (setting [5]) is 178 nM; with HLA-A*29:02 (setting [5]), 6130 nM; with HLA-A*23:01 (setting [5]), no less than 39200 nM; in the assay with HLA-A*26:01 (setting [5]), no less than 61800 nM; with HLA-A*24:02 (setting [5]), no less than 77500 nM; with HLA-A*01:01 (setting [5]) it was no less than 38500 nM.

Take YVQRFFLRV: the Kd with HLA-A*30:02 (setting [6]) was 732 nM; with HLA-A*29:02 (setting [6]) it was 767 nM; with HLA-A*23:01 (setting [6]), 4270 nM; with HLA-A*26:01 (setting [6]) it was no less than 77900 nM; in the assay with HLA-A*24:02 (setting [6]), no less than 26600 nM; with HLA-A*01:01 (setting [6]), 1020 nM.

On to QILASILSI, for which the Kd with HLA-A*32:01 (setting [1]) worked out at 22.1 nM.

For SWFITQRNFF, the Kd in the assay with HLA-A*30:02 (setting [2]) was found to be 1030 nM; with HLA-A*29:02 (setting [2]), 53.2 nM; in the assay with HLA-A*23:01 (setting [2]), 0.0458 nM; with HLA-A*26:01 (setting [2]), 12500 nM; with HLA-A*24:02 (setting [2]), 0.035 nM; with HLA-A*01:01 (setting [2]), 828 nM.

With QILLMRTTW, the Kd with HLA-A*32:01 (setting [4]) was 22 nM.

Consider PYRVVVLSF, for which the Kd is no less than 93800 nM with HLA-A*30:02 (setting [2]); 11500 nM in the assay with HLA-A*29:02 (setting [2]); 20.8 nM with HLA-A*23:01 (setting [2]); 1040 nM with HLA-A*26:01 (setting [2]); 100 nM with HLA-A*24:02 (setting [2]); 1480 nM in the assay with HLA-A*01:01 (setting [2]).

Turning to LFADINGKL, the Kd in the assay with HLA-A*30:02 (setting [2]) is 4340 nM; with HLA-A*29:02 (setting [2]), 470 nM; with HLA-A*23:01 (setting [2]), 1300 nM; with HLA-A*26:01 (setting [2]), no less than 41700 nM; in the assay with HLA-A*24:02 (setting [2]) it was 722 nM; with HLA-A*01:01 (setting [2]) it was no less than 78100 nM.

QFPGQQQPF: the Kd in the assay with HLA-A*30:02 (setting [7]) is 185 nM; in the assay with HLA-A*29:02 (setting [7]) it was 1530 nM; with HLA-A*23:01 (setting [7]) it was 19800 nM; with HLA-A*26:01 (setting [7]), no less than 25900 nM; with HLA-A*24:02 (setting [7]), 676 nM; with HLA-A*01:01 (setting [7]) it was no less than 48900 nM.

Turning to MFSPIVPFW, the dissociation constant (Kd) was no less than 30300 nM with HLA-A*30:02 (setting [2]); 95.1 nM with HLA-A*29:02 (setting [2]); 29.2 nM with HLA-A*23:01 (setting [2]); no less than 77900 nM in the assay with HLA-A*26:01 (setting [2]); 111 nM with HLA-A*24:02 (setting [2]); no less than 78100 nM with HLA-A*01:01 (setting [2]).

For GYVVSNFEGV, the Kd in the assay with HLA-A*30:02 (setting [8]) was no less than 69700 nM; with HLA-A*29:02 (setting [8]), no less than 70800 nM; in the assay with HLA-A*23:01 (setting [8]), no less than 70000 nM; in the assay with HLA-A*26:01 (setting [8]), no less than 69700 nM; in the assay with HLA-A*24:02 (setting [8]), no less than 70300 nM; with HLA-A*01:01 (setting [8]) it was no less than 70400 nM.

For the sequence GPLTTLWEGS, the Kd in the assay with HLA-A*32:01 (setting [4]) was 18200 nM.

As for ISLFYTFAI, the Kd with HLA-A*32:01 (setting [1]) turned out to be 0.567 nM.
